Laboratory results: the DeepSol protein solubility set

Assay: soluble on expression in E. coli; label from the status in PepcDB or PDB records

| Sequence | soluble on expression in E. coli |
| --- | --- |
| MHVFDNNGIELKAECSIGEEDGVYGLILESWGPGDRNKDYNIALDYIIERLVDSGVSQVVVYLASSSVRKHMHSLDERKIHPGEYFTLIGNSPRDIRLKMCGYQAYFSRTGRKEIPSGNRTKRILINVPGIYSDSFWASIIRGELSELSQPTDDESLLNMRVSKLIKKTLSQPEGSRKPVEVERLQKVYVRDPMVKAWILQQSKGICENCGKNAPFYLNDGNPYLEVHHVIPLSSGGADTTDNCVALCPNCHRELHYSKNAKELIEMLYVNINRLQKLEHHHHHH | soluble |
| MQTVIGTTNGRPGTTYYQRGRMHRHQPGNRQQKEKKAAAGRNRNDFLTGRILPVTPDYCMEIRAGEKINLTTRENFDFLYRSALRYSALVGLRLPFRPTGKSPRMNIVKLYRAMDTILPEHVNLEEENGRLYFCLYRFHEWPEYKLFWIPLEFTERLPEKLGKIALEFIRQLARHHGIPKSTDTSYHEMAHDYLEDYRLYDEEATAGEIRRKAALARLYEKGKAHRILKRMDNPKGFLADLEGEIRKYHTKKNNERALLELLTEGTAYISYGSPSIMQYSYDWAYEKAADFRPVGLDTQIMVTWSVKDAMNDEMESYFNSDYQESYVITPVTTFHLTPDTEKPFSMDDFPERFSHWLERFTKLITNNF | not soluble |
| MEAAASEPSLDLDNLKLLELIGRGRYGAVYKGSLDERPVAVKVFSFANRQNFINEKNIYRVPLMEHDNIARFIVGDERVTADGRMEYLLVMEYYPNGSLCKYLSLHTSDWVSSCRLAHSVTRGLAYLHTELPRGDHYKPAISHRDLNSRNVLVKNDGTCVISDFGLSMRLTGNRLVRPGEEDNAAISEVGTIRYMAPEVLEGAVNLRDCESALKQVDMYALGLIYWEIFMRCTDLFPGESVPEYQMAFQTEVGNHPTFEDMQVLVSREKQRPKFPEAWKENSLAVRSLKETIEDCWDQDAEARLTAQCAEERMAELMMIWERNKSVSPTAHHHHHH | soluble |
| MKMKQVSRSALVSFSAEQMFHLVNDVARYPEFLPGCSGSCVLEQSEAHMVASVDVSKAGISKTFTTSNQLTPGVSIAMSLVDGPFKTLRGGWFFTPLDEAACKVELRLEFEFSSKMIELAFGKIFNELTSNMVNAFTRRAKQVYGEMAGDPLEHHHHHH | not soluble |
| GPGSMDSINSVTFEWVRAGPAYTLDGPHVYHSGCLGSYQPAIGGLEMPAGHGKYFYEIQTSDTRCKVGVCTEDAFLSNVNLGDVELHAAQPSSSLNSRLSEANCCLFNCLTCAVEVNGVEVRSLWRLLVPSAGARFGFLVNTDEGAVQLYVNGEYQGLIADTATGFKGKKLRPCIALDAPPTCGAGAEANKSSASVVPPRKIIASTA | not soluble |
| MGSDKIHHHHHHMNILVTGGAGFIGSHVVDKLIENGYGVIVVDNLSSGKVENLNRNALFYEQSIEDEEMMERIFSLHRPEYVFHLAAQASVAISVREPARDAKTNIIGSLVLLEKSIKYGVKKFIFSSTGGAIYGENVKVFPTPETEIPHPISPYGIAKYSTEMYLEFFAREYGLKYTVLRYANVYGPRQDPYGEAGVVAIFTERMLRGEEVHIFGDGEYVRDYVYVDDVVRANLLAMEKGDNEVFNIGTGRGTTVNQLFKLLKEITGYDKEPVYKPPRKGDVRKSILDYTKAKEKLGWEPKVSLEEGLKLTVEYFRKTLE | not soluble |
| MGSDKIHHHHHHMYNPVGVAAIGLGRWAYVMADAYTKSEKLKLVTCYSRTEDKREKFGKRYNCAGDATMEALLAREDVEMVIITVPNDKHAEVIEQCARSGKHIYVEKPISVSLDHAQRIDQVIKETGVKFLCGHSSRRLGALRKMKEMIDTKEIGEVSSIEAVFSNERGLELKKGNWRGEPATAPGGPLTQLGVHQIDNLQFLLGPVARVFNFGKPMYTEVENITVNQTLLEFEDGKQAYLGTNWACPGVFSINVYGTKANLFYQLDFSWWSNSDVTDEHSTLIKREFASMSDDPDNRILRDVKVDFESVDHLRVEVEEVADVIRNGGETEIGAEASLRNLAVVLAAVKSVHEKRPVEIAEIIG | not soluble |
| MTNRYVVIFTVGPVQSFIASARKTEDFWSGSYILSHLVREAIKRFYQFDANCEMIYPLVTEKELRSPSQRDVHIASIPNRLTVIMEGTEEEVCGWLREAEQDVCNVFLDFCFQAVRRVFPHLTDHEQELLERMVEQQVRSFLEIYWVAEPYEPSMSFREVRERAERRLGALKNEKHYIPVSQQGLVCSVCKEREALRLEEIGEFDHYGEIKKKTMSLWQRRAVKFQGTGGDEEDDRRAGRIKDNEFLCGICLGKRAARDYFADLFGTSFPSFPSVLDIGQGDYYAVLLMDGDDMGKWFSGERKDEYSRTSQKLARFAKETVPWIVQERCKGKLVYAGGDDVLAFVPVETALKAAEMLRLAFADERQGLGSGATASFGVVIAHKKAPLQHVLNAARALEQKAKRYYNDKTAQRKDALALAVHTRSGEISEAVLPWIVGEKMVSKLLEEWLGLLKTSLSPNFIFHFASAFAPLLHEKDCPKWENRDMLATELRRLLRRSVKEGSCLDAQDIARYTSTLLVLHEAVRSSYDFLHLLKMLTFFKRSKGRG | not soluble |
| MKPAIKRACLLGTALFSLCASAAQAAGVLVGTWDLRGNGQLAAVYRDGANLQVVEGGSTRNYSFGNVVWSVFGATDTDGQPGAEILVKAGPDLVIVSHASTTQRKYPVGNVSWAIMRATDVDNVAGDEVILSIGNGVRTVFDRTRTQRDATFSYNGTWGLFDVADVDGAPGKELVLNMGNGVKVIDPRTSGAKDFTFSGYHALAQIADLDGQPGAEIIGRTSTGIYVISNASSRKEYSIGASAWALYGGTADTDGKPGNELIVVMQGKVRVIHHASGASSDYRIGDVNYSIDSVADMDGQPGAEILVRDANGKLFVINDRTGKVSS | not soluble |
| MSSVLRLAMRAKGFSRFLAETQAFPVKNRHFMTSSVRKTGDFEYEDPKSEDEVVNITYVLRDGTERKIRGKVGDNVMFLAHRYDIEMEGACEASLACSTCHVYVDPAFQNKLPEPLEEEDDMLDMAPALKDNSRLGCQIVLTKELDGITVTLPTMTRNFYVDGHVPKPH | not soluble |
| SQEIVAGELERCFLAMPESVLPIVTMEERNDLCRRAGHLSGFTHTASLESSLGGTVTFLLNRNFIRIQTSTVGEVFMRILPFSDSSSVICVVTTVLHPVADSRIDFYTTEWKPLKTDRFWQQPRIEDFFLPHTDRQSYAYQAIYASLTPSYMQVSLSEESDTLSIRQTVTETLAEEEKPLAAIFLSPEPLVYRWQSGRFVRQVR | soluble |
| EDFVVSGALNLSLIRERTGFQAKATEDYQTLAGLVMSLLDRLPSTGDSLSWQGWNLQVVGVEERRVTRVLLQKQP | not soluble |
| GPGSMKRSRRATQQEDVMRALKEGVQALSVSSALSTKDLVCRGDHARAIQQFLEDEKHHTMQIFGMPGTGKTATVNFALAQLVSRRGTKPTAVFLNGFVVQKSSDIYYTLHHHLTKARLGAVEPCPVAQCASRIEKRFRHGWGGKPPALCVIVVDEVDKILEKHSKGFFKVVDWLTLPYANCKLITISNSMELQLDAKTKSRLGVVNQLVFSSYGTQELREILVHRVGAIEPKLFADQAVNQLCTQTASHYGDVRRLLQSASAAICGVLMRMRDDAVDVSSTDGIITLREIHTVVRQIFHDRFVEFITTMRMPALFITVAVLGKETEALIRKREVDCRIPLERLLAITQQAQRKCMNVLRPINRAAFMEEIELLRQVSLIEVCIGEDRIPIRCVDELLDAKEEVFVLLLQPYQMVVDSCRLHDAFGATYGAALHL | not soluble |
| MSLSTEPLASRMRPKNIDEIISQQHLVGPKGIIRRMVDTKRLSSMIFYGPPGIGKTSIAKAISGSTQFKFRQLNAVTNTKKDMQLIVEEAKMSGQVILLLDEIHRLDKAKQDFLLPHLENGKIVLIGATTSNPYHAINPAIRSRAQIFELYPLDQDDIRLALDRAINDKERGLSTYHPIVDEDAIEYFSTQSQGDVRSALNALELAVLSAHIGEENERHITLDDAKDCLQKGAFVSDKDGDMHYDVMSAFQKSIRGSDVNAALHYLARLIEAGDLPTIVRRLLVISYEDVGLASPNAGQRTLAAIQSAERLGFPEARIPLSQAVIELCLSPKSNSGITAIDKALGDIRNGHIGQIPDYLKDGHYSGAKKLGRAIGYKYPHNYENGHVVQQYLPEKLKNRVYYEPKTTSKSEQQFKTIYDNLRNKEGHHHHHH | not soluble |
